“And” between values parts separate entries of the source, which are not always exact repeats. Equal entries are not always repeated.
Tests used:
[1] = molecular target: recombinant human IL-5 protein (human) (UniProt P05113); assay: ELISA, biotin-human IL-5 on streptavidin plate, Ab 0.1067 nM
[2] = molecular target: recombinant human IL-5 protein (human) (UniProt P05113); assay: FACS blocking: biotin-IL-5 bound to CHOK1 IL-5Ra/CSF2RB cells, Ab 1.3333 nM
[3] = molecular target: recombinant human IL-5 protein (human) (UniProt P05113); assay: ELISA, biotin-human IL-5 on streptavidin plate, Ab 2.6667 nM
[4] = molecular target: recombinant human IL-5 protein (human) (UniProt P05113); assay: SPR, human IL-5 immobilized on CM5 chip, chimeric antibody as analyte, 1:1 global fit
[5] = molecular target: recombinant human IL-5 protein (human) (UniProt P05113); assay: FACS blocking: biotin-IL-5 bound to CHOK1 IL-5Ra/CSF2RB cells, Ab 0.0004 nM
[6] = molecular target: recombinant human IL-5 protein (human) (UniProt P05113); assay: FACS blocking: biotin-IL-5 bound to CHOK1 IL-5Ra/CSF2RB cells, Ab 6.6667 nM
[7] = molecular target: recombinant human IL-5 protein (human) (UniProt P05113); assay: FACS blocking: biotin-IL-5 bound to CHOK1 IL-5Ra/CSF2RB cells, Ab 0.2667 nM
[8] = molecular target: recombinant human IL-5 protein (human) (UniProt P05113); assay: ELISA, biotin-human IL-5 on streptavidin plate, Ab 0.0213 nM
[9] = molecular target: recombinant human IL-5 protein (human) (UniProt P05113); assay: FACS blocking: biotin-IL-5 bound to CHOK1 IL-5Ra/CSF2RB cells, Ab 0.0107 nM
[10] = molecular target: recombinant human IL-5 protein (human) (UniProt P05113); assay: FACS blocking: biotin-IL-5 bound to CHOK1 IL-5Ra/CSF2RB cells, Ab 33.3333 nM
[11] = molecular target: recombinant human IL-5 protein (human) (UniProt P05113); assay: cell-based or functional assay
[12] = molecular target: recombinant human IL-5 protein (human) (UniProt P05113); assay: ELISA, biotin-human IL-5 on streptavidin plate, Ab 0.0043 nM
[13] = molecular target: recombinant human IL-5 protein (human) (UniProt P05113); assay: ELISA, biotin-human IL-5 on streptavidin plate, Ab 0.5333 nM
[14] = molecular target: recombinant human IL-5 protein (human) (UniProt P05113); assay: ELISA, biotin-human IL-5 on streptavidin plate, Ab 0.0002 nM
[15] = molecular target: recombinant human IL-5 protein (human) (UniProt P05113); assay: ELISA, biotin-human IL-5 on streptavidin plate, Ab 0.0009 nM
[16] = molecular target: recombinant human IL-5 protein (human) (UniProt P05113); assay: ELISA, biotin-human IL-5 on streptavidin plate, Ab 13.3333 nM
[17] = molecular target: recombinant human IL-5 protein (human) (UniProt P05113); assay: FACS blocking: biotin-IL-5 bound to CHOK1 IL-5Ra/CSF2RB cells, Ab 0.0021 nM
[18] = molecular target: recombinant human IL-5 protein (human) (UniProt P05113); assay: FACS blocking: biotin-IL-5 bound to CHOK1 IL-5Ra/CSF2RB cells, Ab 0.0533 nM

OD450 nm [1]: 1.87 OD450 nm and 1.92 OD450 nm | Fluorescence intensity [2]: 41 MFI | OD450 nm [3]: 3.47 OD450 nm and 3.5 OD450 nm | Kd [4]: < 0.0637 nM | koff [4]: < 1e-05 s⁻¹ | kon [4]: 157000 M⁻¹ s⁻¹ | Fluorescence intensity [5]: 95 MFI | Fluorescence intensity [6]: 33 MFI | Fluorescence intensity [7]: 68 MFI | OD450 nm [8]: 0.622 OD450 nm and 0.678 OD450 nm | Fluorescence intensity [9]: 85 MFI | Fluorescence intensity [10]: 28 MFI | RLU, CTLL-2 proliferation with IL-5, Ab 0.000170667 nM [11]: 47900 RLU and 63200 RLU | RLU, CTLL-2 proliferation with IL-5, Ab 0.000853333 nM [11]: 54300 RLU and 63000 RLU | RLU, CTLL-2 proliferation with IL-5, Ab 0.004266667 nM [11]: 51200 RLU and 58000 RLU | RLU, CTLL-2 proliferation with IL-5, Ab 0.02133333 nM [11]: 41700 RLU and 43900 RLU | RLU, CTLL-2 proliferation with IL-5, Ab 0.1066667 nM [11]: 10900 RLU and 10300 RLU | RLU, CTLL-2 proliferation with IL-5, Ab 0.5333334 nM [11]: 8370 RLU and 8250 RLU | RLU, CTLL-2 proliferation with IL-5, Ab 2.666667 nM [11]: 6580 RLU and 7940 RLU | RLU, CTLL-2 proliferation with IL-5, Ab 13.33333 nM [11]: 5750 RLU and 5810 RLU | RLU, CTLL-2 proliferation with IL-5, Ab 66.66666 nM [11]: 3690 RLU and 4030 RLU | RLU, CTLL-2 proliferation with IL-5, Ab 3.41333E-05 nM [11]: 46800 RLU and 55000 RLU | RLU, TF-1 proliferation with IL-5, Ab 0.00001 nM [11]: 95500 RLU and 93900 RLU | RLU, TF-1 proliferation with IL-5, Ab 0.00003 nM [11]: 89800 RLU and 92600 RLU | RLU, TF-1 proliferation with IL-5, Ab 0.00017 nM [11]: 76600 RLU and 80400 RLU | RLU, TF-1 proliferation with IL-5, Ab 0.00085 nM [11]: 66300 RLU and 74200 RLU | RLU, TF-1 proliferation with IL-5, Ab 0.00427 nM [11]: 41500 RLU and 46000 RLU | RLU, TF-1 proliferation with IL-5, Ab 0.02133 nM [11]: 38600 RLU and 44100 RLU | RLU, TF-1 proliferation with IL-5, Ab 0.10667 nM [11]: 41600 RLU and 38800 RLU | RLU, TF-1 proliferation with IL-5, Ab 0.53333 nM [11]: 36400 RLU and 36800 RLU | RLU, TF-1 proliferation with IL-5, Ab 2.66667 nM [11]: 38400 RLU and 36800 RLU | RLU, TF-1 proliferation with IL-5, Ab 13.33333 nM [11]: 36200 RLU and 33500 RLU | OD450 nm [12]: 0.194 OD450 nm and 0.244 OD450 nm | OD450 nm [13]: 3.03 OD450 nm and 2.93 OD450 nm | OD450 nm [14]: 0.098 OD450 nm and 0.127 OD450 nm | OD450 nm [15]: 0.127 OD450 nm and 0.114 OD450 nm | OD450 nm [16]: 3.7 OD450 nm and 3.52 OD450 nm | Fluorescence intensity [17]: 90 MFI | Fluorescence intensity [18]: 82 MFI
B1: 151G3B11 mouse-human chimeric antibody (antibody, human IgG4, V domains shown)
VH: EVHLQQSGAELVKPGASVKLSCTASGFNIKDYYMHWVKQRTEQGLEWIGRIDPEDGETKYAPKFQGQATITADTSSNTANLQLSSLTSEDTAVYYCARYGNFPDYWGPGTTLTVSS
VL: QIVLTQSPALMSASPGEKVTMTCSASSSVSYMYWYQQKPRSSPKPWIYLTSKLASGVPARFSGSGSGTSYSLTISSMEAEDAATYYCQQWNSNPYTFGGGTKLEIK

— patent publication US20220010008A1
